From IntAct's records for PubMed 20506337

B1: AH receptor-interacting protein (Homo sapiens), O00170 (parent)
chain: MADIIARLREDGIQKRVIQEGRGELPDFQDGTKATFHYRTLHSDDEGTVLDDSRARGKPMELIIGKKFKLPVWETIVCTMREGEIAQFLCDIKHVVLYPLVAKSLRNIAVGKDPLEGQRHCCGVAQMREHSSLGHADLDALQQNPQPLIFHMEMLKVESPGTYQQDPWAMTDEEKAKAVPLIHQEGNRLYREGHVKEAAAKYYDAIACLKNLQMKEQPGSPEWIQLDQQITPLLLNYCQCKLVVEEYYEVLDHCSSILNKYDDNVKAYFKRGKAHAAVWNAQEAQADFAKVLELDPALAPVVSRELRALEARIRQKDEEDKARFRGIFSH
partner: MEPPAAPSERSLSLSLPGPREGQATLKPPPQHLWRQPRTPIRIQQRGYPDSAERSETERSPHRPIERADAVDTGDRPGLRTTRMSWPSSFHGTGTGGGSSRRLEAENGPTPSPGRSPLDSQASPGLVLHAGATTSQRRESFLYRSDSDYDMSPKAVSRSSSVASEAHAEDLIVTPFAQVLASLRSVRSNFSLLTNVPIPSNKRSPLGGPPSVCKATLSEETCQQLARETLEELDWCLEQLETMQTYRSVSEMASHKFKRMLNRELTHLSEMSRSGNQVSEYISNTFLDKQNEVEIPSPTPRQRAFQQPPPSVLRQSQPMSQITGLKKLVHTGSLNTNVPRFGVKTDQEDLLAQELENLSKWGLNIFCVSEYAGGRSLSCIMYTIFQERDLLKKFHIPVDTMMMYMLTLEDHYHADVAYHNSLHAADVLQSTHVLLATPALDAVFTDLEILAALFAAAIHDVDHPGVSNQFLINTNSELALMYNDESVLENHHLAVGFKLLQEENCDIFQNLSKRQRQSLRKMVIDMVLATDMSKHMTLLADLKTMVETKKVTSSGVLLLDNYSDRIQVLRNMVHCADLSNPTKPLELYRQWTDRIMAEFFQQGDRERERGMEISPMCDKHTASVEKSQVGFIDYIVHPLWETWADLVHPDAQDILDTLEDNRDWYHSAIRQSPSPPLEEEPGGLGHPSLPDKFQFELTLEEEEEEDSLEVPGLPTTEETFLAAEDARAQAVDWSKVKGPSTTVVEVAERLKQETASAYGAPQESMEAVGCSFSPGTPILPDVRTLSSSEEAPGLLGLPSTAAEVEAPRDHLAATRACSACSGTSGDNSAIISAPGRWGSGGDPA

Variants of: B1
Conditions: with pde4a_rat Pde4a

Variant	effect of a mutation on the interaction
R271W	disrupting interaction strength
R304Q	decreasing interaction strength
A299V	decreasing interaction strength
R16H	decreasing interaction strength
K241E	disrupting interaction strength
C238Y	disrupting interaction strength
K103R	disrupting interaction strength
I257V	decreasing interaction strength
V49M	with no effect
